# According to PMC9359538:
# B1: annexin A1 (natural protein)
# chain: MAMVSEFLKQAWFIENEEQEYVQTVKSSKGGPGSAVSPYPTFNPSSDVAALHKAIMVKGVDEATIIDILTKRNNAQRQQIKAAYLQETGKPLDETLKKALTGHLEEVVLALLKTPAQFDADELRAAMKGLGTDEDTLIEILASRTNKEIRDINRVYREELKRDLAKDITSDTSGDFRNALLSLAKGDRSEDFGVNEDLADSDARALYEAGERRKGTDVNVFNTILTTRSYPQLRRVFQKYTKYSKHDMNKVLDLELKGDIEKCLTAIVKCATSKPAFFAEKLHQAMKGVGTRHKALIRIMVSRSEIDMNDIKAFYQKMYGISLCQAILDETKGDYEKILVALCGGN
# Tests used:
# [1] = biological target: HSV-1 gE expressed from recombinant adenovirus (HSV-1) (UniProt P04488); experiment: co-IP; lysates of 293 cells infected with adenovirus expressing gE (48 h) or with HSV-1; IP with anti-gE Ab; western blot for Anx-A1; band ratio Anx-A1/gE
# [2] = biological target: HSV-1 glycoprotein E (HSV-1) (UniProt P04488); experiment: as above
binder,measurement,setting,value
B1,Anx-A1/gE ratio in the co-precipitate,[1],0.44
same,Anx-A1/gE ratio in the co-precipitate,[2],0.51
